Data taken from US20110301104A1, “Transition state structure of orotate phosphoribosyl transferases and uses thereof” (priority 2008, published 2011).

Experiments:
Experiment in all cases: purified protein, by the assay type
[1] = substrate: O=C(O)CP(=O)(O)O; format: biochemical, Plasmodium falciparum; conditions: other: PA as slow substrate
Description: (§1) Expression and Purification of PfOPRT and HsOPRT. The pDEST14 vectors encoding the two OPRT genes were transformed into BL21-AI E. coli competent cells and grown in LB+Amp (100 μg mL^−1) at 37° C. to an OD600 of 0.6. Protein expression was induced by adding 0.02% L-arabinose with overnight growth at 37° C. Cells were harvested by centrifugation at 4° C., weighted and resuspended in lysis buffer (20 mM Tris-HCl, 500 mM NaCl and 5 mM Imidazole, pH=7.9, 3 mL/gram cell pellet). Lysozyme (100 μg mL^−1), DNase I (10 μg mL^−1) and protease inhibitor (1 tablet/8 grams of cells) (Roche Applied Science, Indianapolis, Ind.) were added to the solution. Following disruption in a French Press, cell lysate was centrifuged at 30,000 g for […] at 4° C. […] The 6×His-OPRTs were eluted with a gradient of imidazole (20 mM ˜500 mM). The OPRT bands were visualized on SDS-PAGE gels and fractions with high purity were pooled, made to 10% glycerol and 10 mM β-ME (final concentration), concentrated and dialyzed overnight at 4° C. to remove imidazole. His-tags were removed during dialysis by the presence of thrombin (1 unit/0.1 mg). His-tag free OPRTs were purified by Superdex 200 26/60 Gel filtration column, concentrated and stored at −80° C. […] Reactions were monitored by the absorbance increase at 295 nm to give an extinction coefficient of 3.67 mM^−1 cm^−1.

[2] = substrate: O=C(O)c1cc(=O)[nH]c(=O)n1[C@@H]1O[C@H](COP(=O)(O)O)[C@@H](O)[C@H]1O; format: biochemical, Plasmodium falciparum; conditions: 25° C., pH 8.0, 25.0 °C
Description: as §1

[3] = substrate: O=C(O)c1cc(=O)[nH]c(=O)n1[C@@H]1O[C@H](COP(=O)(O)O)[C@@H](O)[C@H]1O; format: biochemical, human; conditions: 25° C., pH 8.0
Description: as §1

[4] = substrate: O=C(O)CP(=O)(O)O; conditions: other: PA as slow substrate
[5] = other: OMP with PA (20 mM) as substrate
[6] = other: OMP with PPi (1 mM) as substrate

Protein	Km [1]	kcat [1]	Km [2, 5]	kcat [2, 5]	kcat/Km [2, 5]	Km [2, 6]	kcat [2, 6]	kcat/Km [2, 6]	Km [3, 5]	kcat [3, 5]	kcat/Km [3, 5]	Km [3, 6]	kcat [3, 6]	kcat/Km [3, 6]	Km [4]	kcat [4]
PfOPRT (Plasmodium falciparum 3D7) (protein, His6 (thrombin-cleavable) (N, cleaved yes); made in house; host or cells: E. coli BL21-AI) MTTIKENEFLCDEEIYKSFVHLKDKICEERKKKELVNNNIDNVNFNDDDDNNYDDDGNSYSSYIKEMKKLLKVVLLKYKALKFGEFILKSKRKSNYFFSSGVLNNIVSSNIICFLLSELILKNKLSFDYLLGASYKGIPMVSLTSHFLFESKKYSNIFYLYDRKEKKEYGDKNVIVGNLDDDDKDILNLKKKTKNNQDEEKKNIIIIDDVFTCGTALTEILAKLKTYEHLKVVAFIVLLNRNEYEINENNQKIYFKDIFEKRVGIPLYSILSYKDDIQSMI	1590 µM	0.023 s⁻¹	2.90 ± 1.09 µM	0.014 ± 0.002 s⁻¹	4800 M⁻¹ s⁻¹	3.73 ± 1.36 µM	1.96 ± 0.29 s⁻¹	530000 M⁻¹ s⁻¹	–	–	–	–	–	–	–	–
HsOPRT (Homo sapiens) (protein, This HsUMPase truncation construct only expresses its HsOPRT domain; His6 (thrombin-cleavable) (N, cleaved yes); made in house; host or cells: E. coli BL21-AI) MAVARAALGPLVTGLYDVQAFKFGDFVLKSGLSSPIYIDLRGIVSRPRLLSQVADILFQTAQNAGISFDTVCGVPYTALPLATVICSTNQIPMLIRRKETKDYGTKRLVEGTINPGETCLIIEDVVTSGSSVLETVEVLQKEGLKVTDAIVLLDREQGGKDKLQAHGIRLHSVCTLSKMLEILEQQKKVDAETVGRVKRFIQENVFVAANHNGSPLSIKEAPKELSFGARAELPRIHPVASKLLR	–	–	–	–	–	–	–	–	2.14 ± 0.61 µM	0.017 ± 0.002 s⁻¹	7900 M⁻¹ s⁻¹	1.55 ± 0.61 µM	0.10 ± 0.01 s⁻¹	65000 M⁻¹ s⁻¹	3840 µM	0.017 s⁻¹
